Source: patent US20240218054A1 (MABLOC, published 2024)

B1: ADI-50205 (antibody, V domains shown)
VH: QVQLQESGGGVVQPGRSLRLSCAASGFTFSNFGMHWVRQAPGKGLEWVAIISYDRSNKDYADSVKGRFTISRDNSKNTLYLQMNSLRAEDTAVYYCAKDQCGGDCTADYWGQGTLVTVSS
VL: QSVLIQPASVSGSPGQSITISCTGTSSDVGGDKYVSWYQQHPGKAPKLVIYEVSNRPSGVSNRFSGSKSGNTASLTISGLQAEDEADYYCSSYTSSGTPVVCGGGTKVTVL
notes: full-length IgG; also called Antibody Number 36
B2: ADI-49154 (antibody, V domains shown)
VH: QVQLQESGPGLVKPSGTLSLTCAVSGSSITSSHWWSWVRQPPGKGLAWIGDIYHSGGTTYNPSLKSRVTISVDKSKNQFSLKLSSVTAADTAVYYCARVSVSTSAWYADYWGQGTLVTVSS
VL: QSVLTQPPSVSAAPGQKVTISCSGSSSNIGNNYVSWYQQLPGTAPKLLIYDNNKRPSGIPDRFSGSKSGTSATLGITGLQTGDEANYYCGTWDTSLSTVFGGGTKLTVL
notes: full-length IgG; also called Antibody Number 23
B3: ADI-46596 (antibody, V domains shown)
VH: QVQLQESGPGLVKPSGTLSLTCAVSGGSISSNNWWSWVRQPPGKGLEWIGDTYHSGSPSYNPSLKSRVTISVDKSKNEFSLKLSSVTAADTAVYFCARYCSGATCYGSNGMDVWGQGTTVTVSS
VL: QSVLTQPPSMSAAPGQKVTISCSGSSSNIGNNYVSWYRQLPGTAPKLLIYDNDKRPSGIPDRFSGSKSGTTATLGITGLQTGDEAVYYCGTWDFRLSALFGGGTKLTVL
notes: full-length IgG; also called Antibody Number 35
B4: ADI-46591 (antibody, V domains shown)
VH: QVQLQQWGPELVKPSGTLSLTCTVSGGSISSISWWSWVRQSPGKGLEWIGEINHSGSTVYNPSLKSRVTISVDKSKKQFSLKLRSVTAADTAVYYCVRYCSSTSCYGLNGMDVWGQGTTVTVSS
VL: QSVLTQPPSVSAAPGQKVTISCSGSSSNIGSNFVSWYQQLPGTAPKLLIYDNNKRPSGIPDRFSGSKSGTSATLAITGLQTGDEADYYCGTWDTRLSALFGGGTKVTVL
notes: full-length IgG; also called Antibody Number 39
B5: ADI-42188 (antibody, V domains shown)
VH: EVQLLESGPGLVKPSGTLSLTCAVSGGSISSGNWWSWVRQPPGKGLEWIGEIYHSGSANYNPSLKSRVTISVDKSKNQFSLKLTSVTAADTAVYYCARVVWEYSNAWCVDFWGQGTTVTVSS
VL: QSVLTQPPSVSAAPGQKVTISCSGSSSNIGNNYVSWYQQLPGTAPKLLIYDNNKRPSGIPDRFSGSKSGTSATLGITGLQTGDEADYYCETWDSSLGVVVFGGGTKLTVL
notes: full-length IgG; also called Antibody Number 32
B6: ADI-50026 (antibody, V domains shown)
VH: EVQLLESGGGVVQPGRSLRLSCAASGFTFTTYAMHWVRQAPGKGLEWVAAVSYDGNNKYYADSVKGRFTISRDNSRNTLYLQMNSLRAEDTAVYFCARNTYYDRSGLIAYWGQGALVTVSS
VL: DIQVTQSPSSLSASVGDRVTITCQASQDISNYLNWYQHKPGRAPKLLIYDASNLERGVPSRFSGSGSGTDFTFTISSLQPEDIATYYCQQYDNLSRLTFGGGTKLEIK
notes: full-length IgG; also called Antibody Number 33
B7: ADI-49189 (antibody, V domains shown)
VH: EVQLVESGGGLVKPGGSLRLSCAASGFTFSDYYMSWIRQAPGKGLECIACISSSGSMIYYADSVKGRFTISRDNAKNSLYLQLNSLRVEDTAVYYCAREGTRGRMDWGQGTLVTVSS
VL: QSVLTQPASVSGSPGQSITISCTGTSSDIGGYNYVSWYQQHPGKVPKLVIYDVSNRPSGVSNRFSGSKSGNTASLTISGLQAEDEADYYCSSYTSGTTLGVFGTGTKLTVL
notes: full-length IgG; also called Antibody Number 30
B8: ADI-50531 (antibody, V domains shown)
VH: EVTLKESGPTLVKPTQTLTLTCTFSGFSLSTSGVGVGWIRQPPGKALEWLALIYWDDDKRYSPSLKSRLTITKDTSKNQVVLTMTNMDPVDTATYYCAHSPRRITMVRGVIITWGDGMDVWGQGTTVTVSS
VL: QPVLTQPASVSGSPGQSITISCTGTSSDVGGYNYVSWYQQHPGKAPKLMIYDVSNRPSGVSNRFSGSKSGNTASLTISGLQAEDEADYYCSSYTSSSTLAVFGGGTKLTVL
notes: full-length IgG; also called Antibody Number 42
B9: ADI-42194 (antibody, V domains shown)
VH: EVQLQESGPGLVKPSETLSLTCTVSGGSVSSGSYYWSWIRQPPGKGLEWIGYIYDSGNTNYNPSLKSRVTISVDTSKRQFSLRLTSVTAADTAVYYCAKVEEDGYTNVVRDYWGQGTLVTVSS
VL: EIVMTQSPATLSLSPGERATLSCRASQSVSNYLAWYQQKPGQAPRLLISDASSRATGIPARFRGSGSGTDFTLTISSLEPEDFAVYYCLQRTNWPFTFGPGTKVEIK
notes: full-length IgG; also called Antibody Number 29
B10: ADI-42201 (antibody, V domains shown)
VH: EVQLVESGGGVVQPGRSLRLSCVASGFTLRSYGMHWVRQVPGKGLEWVAVSWYDGSNKHYADSVKGRFSISRDNSKNTLYLQMNSLRAEDTAVYYCARAQDGQQLVNYYGMDVWGQGTTVTVSS
VL: DIQMTQSPSSLSASVGDRVTITCRASQSISSYLNWYQQKPGEAPNLLIFAASILQSGVPSRFSGSGSGTDFTLTISSLQPEDFATYYCQQSYSTPYTFGQGTKVEIK
notes: full-length IgG; also called Antibody Number 25
B11: ADI-49186 (antibody, V domains shown)
VH: QVQLVESGGGVVQPGRSLRLSCAASGFTFSNSGMHWVRQAPGQGLEWVALISYTGETKYYSDSLKARFTISRDNSKNTLYLQMSSLSNEDTAVYYCARDYYASGDGYFDYWGQGTLVTVSS
VL: DIVLTQSPDSLAVSLGERATINCKSSQSVLFGSNQKSCLAWYQQKPGQSPKLLIHWASTRESGVPDRFSGSGSGTDFTLTISSLQAEDVAVYYCQQYYSTPRTFGQGTKVEIK
notes: full-length IgG; also called Antibody Number 38
B12: ADI-42809 (antibody, V domains shown)
VH: QVQLVESGPGLVKPSGTLSLTCAVSGDSISSTNWWSWVRQPPGKGLEYIGEIFHSGSTNYNPFLKSRVTISVDKSKNHFSLKLSSVTAADTAVYYCARGPLKSYWYFDLWGRGTLVTVSS
VL: QSVLTQPPSVSAAPGQKVTISCSGSSSNIGNNYVSWYQQLPGTAPKLLIYDNNKRPSGIPDRFSGSKSGTSATLGITGLQTGDEADYYCGTWDTSLSAGRVFGGGTKLTVL
notes: full-length IgG; also called Antibody Number 34
B13: ADI-42830 (antibody, V domains shown)
VH: EVQLLESGPGLVRPSGTLSLTCAVSGASISSNHWWTWVRQPPGKGLEWIGEIYHSGSPTYNPSLKSRVTISVDKSKNQFSLKLNSVTAADTAVYYCASTLWGGPLSVASDYWGQGTLVTVSS
VL: QSVLTQPPSVSAAPGQKVTISCSGSSSNIGNYYVSWYQQVPGTAPKLLIYDNNKRPSGIPDRFSGSKSGTSATLGITGLHTGDEAEYYCGTWDSSPSAGRVFGGGTKLTVL
notes: full-length IgG; also called Antibody Number 37
B14: ADI-48955 (antibody, V domains shown)
VH: QVQLVQSGGGLVNPGGSLRLSCAASGFTFTDYYMSWIRQAPGKGLEWVSYISSSGNTRYYADSVKGRFTISRDNAKNSLSLQMNSLRPEDTAIYYCARDGSLVNAIDYWGQGTLVTVSS
VL: QSVLTQPPSVSAAPGQKVTISCSGSSSNFGNDYVSWYQQLPGTAPKLLIYDNDKRPSGIPDRFSGSKSGTSATLGITGLQTGDEADYYCGTWDTSLSAAWVFGGGTKVTVL
notes: full-length IgG; also called Antibody Number 40
B15: ADI-42818 (antibody, V domains shown)
VH: EVQLVESGPGLVKPSGTLSLTCAVSGGSITGSNWWSWVRQPPGKGLEWIGEIYHTGSTSYNPSLKSRVTISVDNSKNHFSLRLTSVTAADTAVYYCARVRWSGSTSWDLDYWGQGTLVTVSS
VL: QSVVTQPPSVSAAPGQKVTISCSGSSSNIGNNYVSWYQQLPGTAPKLLIYDNNKRPSGIPDRFSGSTSGTSATLGITGLQTGDEAVYYCGTWDTSPSAGGVFGGGTKVTVL
notes: full-length IgG; also called Antibody Number 41
B16: ADI-46586 (antibody, V domains shown)
VH: EVQLVESGGGLVKPGGSLRLSCAASGFTFTDYYMSWIRQAPGKGLEWVSYITSSGNTKYYADSVKGRFTISRDNAKNSLFLQMNSLRAEDTAVYFCARDGSMVNAIDYWGQGTLVTVSS
VL: QPVLTQPPSVSAAPGQKVTISCSGSSSNIGNDYVSWYQQLPGTAPKLLIYDNNKRPSGIPDRFSGSKSGTSATLGITGLQTGDEGDYYCGTWDSSLSAAWVFGGGTKVTVL
notes: full-length IgG; also called Antibody Number 43
B17: ADI-42151 (antibody, V domains shown)
VH: QVQLQESGPGLVKPSGTLSLTCAVSGGSISSSNWWSWVRQPPGKGLEWIGEIYHSGSTTYNPSLKSRVTISVDKSKNQFSLKLSSVTAADTAVYYCARGPLKTYWYFDLWGRGTLVTVSS
VL: QSVVTQPPSVSAAPGQKVTISCSGSSSNIGNNYVSWYQQLPGTAPKLLIYDNNKRPSGIPDRFSGSKSGTSATLGITGLQTGDEADYYCGTWDTSLSAGRVFGGGTKLTVL
notes: full-length IgG; also called Antibody Number 51
B18: ADI-49188 (antibody, V domains shown)
VH: EVQLLESGPGLVRPSGTLSLTCAVSGGSISTTDWWSWVRQPPGKGLEWIGEINQSGSTSYSPSFKSRVSISVDKSKRQFSLKLTSVTAADTAVYYCARDSWSGPTRNWFDPWGRGTLVTVSS
VL: QSVVTQPPSVSAAPGQKVTISCSGRSSNIGNSDVSWYQQFPGRAPKLLIYDNDERPSGIPDRFSGSKSGTSATLDITGLQTGDEADYYCGTWDSSLGGVIFGGGTKVTVL
notes: full-length IgG; also called Antibody Number 31
B19: ADI-42144 (antibody, V domains shown)
VH: QVQLVESGGGVVQPGRSLRLSCAASGFTFSSYTMHWVRQAPGKGLEWVAVISYDGSNKYYADSVKGRFTISRDNSKNTLYLQMNSLRAEDTAVYYCARGGDYGDYESNNPAEYFQHWGQGTLVTVSS
VL: QSVLTQPPSVSGAPGQRVTISCTGSSSNIGAGYDVHWYQQLPGTAPKLLIYGNSNRPSGVPDRFSGSKSGTSASLAITGLQAEDEADYYCQSYDSSLSGHVVFGGGTKLTVL
notes: full-length IgG; also called Antibody Number 26
B20: ADI-50219 (antibody, V domains shown)
VH: QVQLQESGPGLVKPSETLSLTCTVSGDSISVSYWSWIRQFPGKGLEWIGYIYNSGNANYNPSLESRVTISIDTSKNRFSLRLSSVTAADTAVYYCAGHREDPYGAYGASWGQGTLVTVSS
VL: EIVLTQSPATLSSSPGERATLSCRASQSVNSYLVWYQQKPGQAPRLLIYDASNRATGIPARFTGSGSGTDFTLTISSLEPEDFAVYYCQQRTNWPFTFGQGTKVDIK
notes: full-length IgG; also called Antibody Number 27
B21: ADI-48897 (antibody, V domains shown)
VH: EVQLLESGPGLVKPSETLSLTCTVSGGSLSSDSHFWGWIRQPPGKGLEWIGYIYYSGNANYNPSLQSRVTISLDKSKNQFSLRLTSVTAADTAVYYCASRKEVRGTEDYFDYWGQGTLVTVSS
VL: EIVLTQSPATLSLSPGERATLSCRASQSVNRYLAWYQQKPGQAPRLLIYDASNRATGIPARFSGSGSGTDFTLTISSLEPEDFAVYYCHQRTNWPWTFGQGTKVEIK
notes: full-length IgG; also called Antibody Number 28
B22: ADI-49183 (antibody, V domains shown)
VH: QVQLVESGGGLVKPGGSLRLSCVASGFTFNNYYMRWMRQAPGKGLEWVSQISSSGSIKDYADSVKGRFTVSRDNAKNSLYLQLNSLRADDTAVYFCARELSSRIDYWGQGTLVTVSS
VL: QSALTQPASVSGSPGQSITISCTGTGSDVGGYNFVSWYQQHPGKAPKLMLYDVNNRPSGVSNRFSGSKSGNTASLTISGLQAEDEADYYCSSYPGTSALVIFGGGTRLTVL
notes: full-length IgG; also called Antibody Number 24

Biological target: T1, recombinant YFV E protein (soluble E, sE; YFV Asibi strain) (Yellow fever virus, Asibi strain, UniProt Q6DV88 286-678)
T1 construct: also called YFV E antigen; YFV E monomer
Test: BLI monovalent (IgG on tip)

T1 sequence (Q6DV88 286-678): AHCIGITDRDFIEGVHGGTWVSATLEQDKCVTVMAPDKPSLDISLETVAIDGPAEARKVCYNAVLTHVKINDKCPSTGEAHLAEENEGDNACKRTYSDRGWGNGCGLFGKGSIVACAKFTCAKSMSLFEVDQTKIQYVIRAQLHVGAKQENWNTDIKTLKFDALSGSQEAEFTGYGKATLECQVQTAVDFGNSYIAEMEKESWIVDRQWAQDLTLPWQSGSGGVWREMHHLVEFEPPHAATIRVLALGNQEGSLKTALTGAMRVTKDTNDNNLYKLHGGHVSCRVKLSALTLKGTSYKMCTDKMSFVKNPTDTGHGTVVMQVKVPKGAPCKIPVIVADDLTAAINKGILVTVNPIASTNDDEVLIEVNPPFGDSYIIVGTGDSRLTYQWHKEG

Going from B1 to B2, the Kd rises from 18.8 nM to 141 nM (7.5-fold). The first binds more tightly here.

Going from B3 to B4, the Kd rises from 5.11 nM to 9.6 nM (1.9-fold).

First: B5
Second: B6
The Kd of the first is lower: 37.1 nM for the first, greater than 100 nM for the second.

Compared with B7, B8 is higher in Kd: 12.7 nM for the first, greater than 100 nM for the second. The first binds more tightly here.

First: B9
Second: B10
The Kd of the first is 21-fold lower: 5.44 nM for the first, 113 nM for the second. The first binds more tightly here.

First: B11
Second: B12
The Kd of the first is 3.3-fold higher: 12.3 nM for the first, 3.78 nM for the second. The second binds more tightly here.

Compared with B13, B14 is 1.7-fold lower in Kd: 3.48 nM for the first, 2.05 nM for the second.

B15 and B16 are within 1.5-fold of each other in Kd: 2.41 nM for the first, 2.16 nM for the second.

Compared with B17, B18 is 31-fold lower in Kd: 297 nM for the first, 9.54 nM for the second.

First: B19
Second: B20
The Kd of the first is 13-fold higher: 10.9 nM for the first, 0.859 nM for the second.

B21 and B22 are within 1.5-fold of each other in Kd: 3.22 nM for the first, 2.21 nM for the second.
